Measured values reported in the Immune Epitope Database (IEDB).

Key:
Experiment in all cases: IEDB peptide-MHC binding, purified MHC/competitive/fluorescence; filed as Kd, often an IC50 or EC50 that approximates it; ≥ and ≤ were set here for values at or beyond the usual limits of such assays
Conditions in all cases: source organism: Rickettsia bellii OSU 85-389
HLA-B*08:01 = target: HLA-B*08:01
HLA-B*27:05 = target: HLA-B*27:05
HLA-B*40:01 = target: HLA-B*40:01
HLA-A*23:01 = target: HLA-A*23:01
HLA-A*01:01 = target: HLA-A*01:01
HLA-B*14:02 = target: HLA-B*14:02
HLA-A*30:01 = target: HLA-A*30:01
HLA-A*11:01 = target: HLA-A*11:01

Measured: Kd

EDFEIFYNL
≥ 5 µM: all assays above
